Patent US20050288217A1 (UNIVERSITY OF NORTH CAROLINA AT CHAPEL HILL, published 2005)

T1: β3 integrin mutant in which the identical region of the β1 integrin was substituted for the 8 amino acid … (UniProt P05106 27-788)
T1 construct: whole, on cells; also called mutant protein; β3 mutant
T1 sequence (looked up): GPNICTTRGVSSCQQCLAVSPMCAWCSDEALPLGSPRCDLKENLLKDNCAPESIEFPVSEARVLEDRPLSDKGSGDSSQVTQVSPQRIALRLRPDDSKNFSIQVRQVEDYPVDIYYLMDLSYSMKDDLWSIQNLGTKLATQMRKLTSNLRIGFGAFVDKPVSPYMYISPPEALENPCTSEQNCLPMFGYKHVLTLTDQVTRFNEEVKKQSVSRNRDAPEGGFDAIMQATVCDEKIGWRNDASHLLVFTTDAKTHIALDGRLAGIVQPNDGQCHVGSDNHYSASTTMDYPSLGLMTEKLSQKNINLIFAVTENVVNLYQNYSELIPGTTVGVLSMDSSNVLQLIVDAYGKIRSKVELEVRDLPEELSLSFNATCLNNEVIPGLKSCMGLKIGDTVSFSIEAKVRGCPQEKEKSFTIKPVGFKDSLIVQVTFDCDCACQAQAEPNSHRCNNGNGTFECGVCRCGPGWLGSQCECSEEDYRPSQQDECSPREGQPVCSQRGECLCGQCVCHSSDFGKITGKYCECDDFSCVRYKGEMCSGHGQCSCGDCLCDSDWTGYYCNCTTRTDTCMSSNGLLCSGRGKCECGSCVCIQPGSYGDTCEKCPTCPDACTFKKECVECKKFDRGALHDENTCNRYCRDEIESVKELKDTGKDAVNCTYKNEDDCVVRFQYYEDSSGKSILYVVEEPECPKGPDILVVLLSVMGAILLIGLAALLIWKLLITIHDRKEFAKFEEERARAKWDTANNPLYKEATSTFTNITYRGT

B1: connective tissue growth factor (ligand, UniProt P29279 27-349, looked up)
chain: QNCSGPCRCPDEPAPRCPAGVSLVLDGCGCCRVCAKQLGELCTERDPCDPHKGLFCHFGSPANRKIGVCTAKDGAPCIFGGTVYRSGESFQSSCKYQCTCLDGAVGCMPLCSMDVRLPSPDCPFPRRVKLPGKCCEEWVCDEPKDQTVVGPALAAYRLEDTFGPDPTMIRANCLVQTTEWSACSKTCGMGISTRVTNDNASCRLEKQSRLCMVRPCEADLEENIKKGKKCIRTPKISKPIKFELSGCTSMKTYRAKFCGVCTDGRCCTPHRTTTLPVEFKCPDGEVMKKNMMFIKTCACHYNCPGDNDIFESLYYRKMYGDMA
B2: heparin binding epidermal growth factor (ligand, UniProt Q99075 63-148, looked up)
chain: DLQEADLDLLRVTLSSKPQALATPNKEEHGKRKKKGKGLGKKRDPCLRKYKDFCIHGECKYVKELRAPSCICHPGYHGERCHGLSL
B3: vitronectin (ligand, UniProt P04004 20-478, looked up)
chain: DQESCKGRCTEGFNVDKKCQCDELCSYYQSCCTDYTAECKPQVTRGDVFTMPEDEYTVYDDGEEKNNATVHEQVGGPSLTSDLQAQSKGNPEQTPVLKPEEEAPAPEVGASKPEGIDSRPETLHPGRPQPPAEEELCSGKPFDAFTDLKNGSLFAFRGQYCYELDEKAVRPGYPKLIRDVWGIEGPIDAAFTRINCQGKTYLFKGSQYWRFEDGVLDPDYPRNISDGFDGIPDNVDAALALPAHSYSGRERVYFFKGKQYWEYQFQHQPSQEECEGSSLSAVFEHFAMMQRDSWEDIFELLFWGRTSAGTRQPQFISRDWHGVPGQVDAAMAGRIYISGMAPRPSLAKKQRFRHRNRKGYRSQRGHSRGRNQNSRRPSRATWLSLFSSEESNLGANNYDDYRMDWLVPATCEPIQSVFFFSGDKYYRVNLRTRRVDTVDPPYPRSIAQYWLGCPAPGHL
B4: osteopontin (ligand)
chain: not shown

molecular target: T1, β3 integrin mutant in which the …; test: binding assay on CHO cells expressing the mutant β3

Binding result, no binding:
B1
B2
B3
B4
